Assay results published in patent US20260008815A1, “CYCLIC PEPTIDE OR SALT THEREOF, AND USES THEREOF” (FUJIFILM Corporation, priority 2023, published 2026).
Bridge positions count the residues as written; N and C are the ends. Ends that are not written are not given here. COCH2 = acetyl group that carries the bridge

biological target: T1, Recombinant Human FGFR2 alpha (IIIc) Fc Chimera Protein, CF (R&D systems, 712-FR-050) (human, UniProt P21802 22-377); assay: ELISA on plate-bound FGFR2-Fc
T1 construct: bought; not shown: Fc part of the chimera
T1 sequence (P21802 22-377, change not shown): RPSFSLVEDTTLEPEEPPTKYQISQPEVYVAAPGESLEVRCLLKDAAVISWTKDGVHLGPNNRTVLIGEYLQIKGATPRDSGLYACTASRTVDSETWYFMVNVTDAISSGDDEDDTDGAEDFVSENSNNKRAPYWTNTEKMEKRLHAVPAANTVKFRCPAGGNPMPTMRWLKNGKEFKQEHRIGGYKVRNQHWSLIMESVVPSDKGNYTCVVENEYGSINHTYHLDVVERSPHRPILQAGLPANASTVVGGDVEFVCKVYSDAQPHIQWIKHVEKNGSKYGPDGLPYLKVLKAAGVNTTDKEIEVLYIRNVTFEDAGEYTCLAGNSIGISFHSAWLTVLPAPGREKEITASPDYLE
Method: First, 5 ng of Recombinant Human FGFR2 alpha (IIIc) Fc Chimera Protein (R&D systems, 712-FR-050) was immobilized in each well of a 96-well plate, and blocked with Pierce Protein-Free (PBS) Blocking Buffer (Thermo, 37572), and a peptide diluted with Can Get Signal Immunoreaction Enhancer Solution I (TOYOBO, NKB-101) was then added and reacted at room temperature for 3 hours. After washing with 0.05% Tween 20-containing phosphate buffered saline (PBS), an anti-Myc antibody (Cell Signaling, 14038S) diluted with Can Get Signal Immunoreaction Enhancer Solution II (TOYOBO, NKB-101) was added and reacted at room temperature for 2 hours. After washing with 0.05% Tween 20-containing PBS, SuperSignal ELISA Femto Substrate (Thermo, 37075) was added, and the luminescence amount was measured. The dose-response relationship was calculated from using the difference between the luminescence amount in the well in which FGFR was immobilized and the luminescence amount in the well in which FGFR was not immobilized, and the concentration of the peptide at the time of reaction, and the binding affinity to FGFR was evaluated according to the following evaluation criteria. The evaluation result preferably satisfies the evaluation criteria A, B, or C.

| ELISA luminescence signal at 10 nmol/L peptide, relative to SEQ ID NO: 47 (=1) [ratio] | Binder |
| --- | --- |
| ≥ 0.7 | YCEENYLSPEQYQYFIYFK(COCH2)Y (thioether 2-19 (inferred)) [cyclic peptide SEQ ID NO: 216] |
| ≥ 0.7 | YCEENYLYPEQYQYFIYFK(COCH2)Y (thioether 2-19 (inferred)) [cyclic peptide SEQ ID NO: 212] |
| 0.1 to 0.5 | YCEENYLIPEQYQYFIYFK(COCH2)Y (thioether 2-19 (inferred)) [cyclic peptide SEQ ID NO: 209] |
| 0.5 to 0.7 | YCEENYLWPEQYQYFIYFK(COCH2)Y (thioether 2-19 (inferred)) [cyclic peptide SEQ ID NO: 213] |
| 0.1 to 0.5 | YCEENYLLPEQYQYFIYFK(COCH2)Y (thioether 2-19 (inferred)) [cyclic peptide SEQ ID NO: 208] |
| ≥ 0.7 | YCEENYLQPEQYQYFIYFK(COCH2)Y (thioether 2-19 (inferred)) [cyclic peptide SEQ ID NO: 215] |
| ≥ 0.7 | YCEENYLNPEQYQYFIYFK(COCH2)Y (thioether 2-19 (inferred)) [cyclic peptide SEQ ID NO: 214] |
| ≥ 0.7 | YCEENYLFPEQYQYFIYFK(COCH2)Y (thioether 2-19 (inferred)) [cyclic peptide SEQ ID NO: 211] |
| 0.1 to 0.5 | YCEENYLVPEQYQYFIYFK(COCH2)Y (thioether 2-19 (inferred)) [cyclic peptide SEQ ID NO: 210] |
| ≥ 0.7 | YCEENYLGPEQYQYFIYFK(COCH2)Y (thioether 2-19 (inferred)) [cyclic peptide SEQ ID NO: 207] |

Continued, binder first:

| Binder | ELISA luminescence signal at 10 nmol/L peptide, relative to SEQ ID NO: 47 (=1) [ratio] |
| --- | --- |
| YCEESYLDPEQYQYFIYFK(COCH2)Y (thioether 2-19 (inferred)) [cyclic peptide SEQ ID NO: 184] | 0.1 to 0.5 |
| YCEENYYDPEQYQYFIYFK(COCH2)Y (thioether 2-19 (inferred)) [cyclic peptide SEQ ID NO: 198] | ≥ 0.7 |
| YCEETYLDPEQYQYFIYFK(COCH2)Y (thioether 2-19 (inferred)) [cyclic peptide SEQ ID NO: 185] | 0.1 to 0.5 |
| YCEENYQDPEQYQYFIYFK(COCH2)Y (thioether 2-19 (inferred)) [cyclic peptide SEQ ID NO: 201] | ≥ 0.7 |
| YCEENWLDPEQYQYFIYFK(COCH2)Y (thioether 2-19 (inferred)) [cyclic peptide SEQ ID NO: 188] | ≥ 0.7 |
| YCEENYWDPEQYQYFIYFK(COCH2)Y (thioether 2-19 (inferred)) [cyclic peptide SEQ ID NO: 199] | ≥ 0.7 |
| YCEENQLDPEQYQYFIYFK(COCH2)Y (thioether 2-19 (inferred)) [cyclic peptide SEQ ID NO: 190] | 0.1 to 0.5 |
| YCEENSLDPEQYQYFIYFK(COCH2)Y (thioether 2-19 (inferred)) [cyclic peptide SEQ ID NO: 191] | 0.1 to 0.5 |
| YCEENFLDPEQYQYFIYFK(COCH2)Y (thioether 2-19 (inferred)) [cyclic peptide SEQ ID NO: 187] | ≥ 0.7 |
| YCEENYNDPEQYQYFIYFK(COCH2)Y (thioether 2-19 (inferred)) [cyclic peptide SEQ ID NO: 200] | 0.1 to 0.5 |
| YCEENYRDPEQYQYFIYFK(COCH2)Y (thioether 2-19 (inferred)) [cyclic peptide SEQ ID NO: 205] | ≥ 0.7 |
| YCEENDLDPEQYQYFIYFK(COCH2)Y (thioether 2-19 (inferred)) [cyclic peptide SEQ ID NO: 192] | 0.1 to 0.5 |
| YCEENYVDPEQYQYFIYFK(COCH2)Y (thioether 2-19 (inferred)) [cyclic peptide SEQ ID NO: 196] | ≥ 0.7 |
| YCEENLLDPEQYQYFIYFK(COCH2)Y (thioether 2-19 (inferred)) [cyclic peptide SEQ ID NO: 186] | 0.1 to 0.5 |
| YCEENYEDPEQYQYFIYFK(COCH2)Y (thioether 2-19 (inferred)) [cyclic peptide SEQ ID NO: 204] | 0.1 to 0.5 |
| YCEENNLDPEQYQYFIYFK(COCH2)Y (thioether 2-19 (inferred)) [cyclic peptide SEQ ID NO: 189] | 0.5 to 0.7 |
| YCEENYIDPEQYQYFIYFK(COCH2)Y (thioether 2-19 (inferred)) [cyclic peptide SEQ ID NO: 195] | ≥ 0.7 |
| YCEENYSDPEQYQYFIYFK(COCH2)Y (thioether 2-19 (inferred)) [cyclic peptide SEQ ID NO: 202] | 0.5 to 0.7 |
| YCEENYHDPEQYQYFIYFK(COCH2)Y (thioether 2-19 (inferred)) [cyclic peptide SEQ ID NO: 206] | ≥ 0.7 |
| YCEENHLDPEQYQYFIYFK(COCH2)Y (thioether 2-19 (inferred)) [cyclic peptide SEQ ID NO: 194] | ≥ 0.7 |
| YCEENYTDPEQYQYFIYFK(COCH2)Y (thioether 2-19 (inferred)) [cyclic peptide SEQ ID NO: 203] | ≥ 0.7 |
| YCEENRLDPEQYQYFIYFK(COCH2)Y (thioether 2-19 (inferred)) [cyclic peptide SEQ ID NO: 193] | 0.1 to 0.5 |
| YCEENYFDPEQYQYFIYFK(COCH2)Y (thioether 2-19 (inferred)) [cyclic peptide SEQ ID NO: 197] | ≥ 0.7 |
